Source: patent publication US20060239990A1, “Protein Arginine N-Methyltransferase 2 (PRMT-2)” (priority 2003, published 2006)

B1: PRMT2-N: generated by introducing a stop codon after amino acid 95 of PRMT-2, SEQ ID NO:4 (protein)
chain: MATSGDCPRSESQGEEPAECSEAGLLQEGVQPEEFVAIADYAATDETQLSFLRGEKILILRQTTADWWWGERAGCCGYIPANHVGKHVDEYDPED
modifications: A synthetic PRMT-2-N polypeptide
B2: PRMT2-A: alternatively spliced form containing the first 218 amino acids of PRMT-2, SEQ ID NO:3 (protein)
chain: MATSGDCPRSESQGEEPAECSEAGLLQEGVQPEEFVAIADYAATDETQLSFLRGEKILILRQTTADWWWGERAGCCGYIPANHVGKHVDEYDPEDTWQDEEYFGSYGTLKLHLEMLADQPRTTKYHSVILQNKESLTDKVILDVGCGTGIISLFCAHYARPRAVYAVEASEMAQHTGQLVLQNGFADIITVYQQKVEDVVLPEKVDVLVSEWMGTCLL
modifications: A synthetic PRMT-2-A mutant polypeptide
B3: mutant PRMT-2: mutated PRMT-2 lacking functional Ado-Met domain (the PRMT-2-4A mutant according to b407) (protein)
chain: MATSGDCPRSESQGEEPAECSEAGLLQEGVQPEEFVAIADYAATDETQLSFLRGEKILILRQTTADWWWGERAGCCGYIPANHVGKHVDEYDPEDTWQDEEYFGSYGTLKLHLEMLADQPRTTKYHSVILQNKESLTDKVAAAAGCGTGIISLFCAHYARPRAVYAVEASEMAQHTGQLVLQNGFADIITVYQQKVEDVVLPEKVDVLVSEWMGTCLLFEFMIESILYARDAWLKEDGVIWPTMAALHLVPCSADKDYRSKVLFWDNAYEFNLSALKSLAVKEFFSKPKYNHILKPEDCLSEPCTILQLDMRTVQISDLETLRGELRFDIRKAGTLHGFTAWFSVHFQSLQEGQPPQVLSTGPFHPTTHWKQTLFMMDDPVPVHTGDVVTGSVVLQRNPVWRRHMSVALSWAVTSRQDPTSQKVGEKVFPIWR

Tests used:
p50/p65 complex = assay: NF-κB DNA binding assay (EMSA); assay type: biochemical, human; conditions: 293 cells cotransfected with p50 and p65 expression vectors
Protocol: DNA binding assay. Electrophoretic mobility shift assays (EMSAs) were conducted on 10 μg of nuclear extract protein from 293 cells transiently transfected with pRSV p50/p65 expression constructs and pVR1012 PRMT-2-A/PRMT-2-N expression constructs. A modified Dignam procedure (Dignam et al. Nucleic Acids Res. 11, 1475-1489 (1983)) was used to prepare nuclear extracts from 293 cells. Perkins, N. D. et al. Science 275, 523-527 (1997). NF-KB DNA binding was assayed using a double-stranded 32P-labeled κB probe (Geneka Biotechnology). DNA binding assays were performed as described previously. Perkins et al. Science 275, 523-527 (1997). Supershifting was done using NF-κB p65 (C-20) and NF-κB p50 (H-119) (Santa Cruz). GST-PRMT-2-A fusion proteins were expressed in BL21 (DE3) cells and extracts were prepared as described previously. Smith, D. B. & Johnson, K. S. Gene 67, 31-40 (1988).

IκB-α = assay: Co-immunoprecipitation with endogenous IκB-α in 293 cells; assay type: binding, human; conditions: HA-tagged constructs in 293 cells
IκB-α, sequence (P25963 whole entry, the tested form may be a part): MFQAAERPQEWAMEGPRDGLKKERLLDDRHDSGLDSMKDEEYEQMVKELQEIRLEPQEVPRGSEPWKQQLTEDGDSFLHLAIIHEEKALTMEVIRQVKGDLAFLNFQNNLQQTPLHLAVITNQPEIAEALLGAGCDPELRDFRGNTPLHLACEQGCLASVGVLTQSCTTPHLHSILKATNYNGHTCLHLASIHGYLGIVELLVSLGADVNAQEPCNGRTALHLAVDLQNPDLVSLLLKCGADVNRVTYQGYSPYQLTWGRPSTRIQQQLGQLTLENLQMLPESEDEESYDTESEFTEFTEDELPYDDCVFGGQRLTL
From the text: A polyclonal antibody to recombinant PRMT2 was used to examine the association between endogenous PRMT2 and IκB-α in vivo. […] The domain of IκB-α required for association with PRMT2 was mapped using in vivo immunoprecipitation assays where HA-tagged PRMT2 was coexpressed with truncation mutants of His-tagged IκB-α (FIG. 5B) in 293 cells. The ankyrin domain was both necessary and sufficient for this association (FIG. 5D, lanes 1 and 2). The domain of PRMT2 that interacted with endogenous IκB-α was mapped by immunoprecipitation following expression HA-tagged PRMT2 truncation mutants (FIG. 5C). […] When the ratios of PRMT2 or PRMT2-A binding to IκB-α were compared, both interacted with IκB-α with similar affinity.

NF-κB = NF-κB luciferase reporter assay in 293T cells; assay type: cell-based, human; conditions: for NF-κB activity: 1 μg expression construct, 100 ng 5 κB luciferase reporter; for IKK2- and p65-induced NF-κB activity: κB luciferase reporter, 48 hrs
Protocol: Cell culture, transfection, and reporter gene assays. The E1A-transformed, human kidney cell line, 293, and NIH-3T3 cells were maintained in Dulbecco's Modified Eagle Medium (DMEM) supplemented with 10% fetal calf serum and penicillin-streptomycin at 37° C. in 5% carbon dioxide in tissue culture grade Petri dishes. PRMT-2−/− mouse embryo fibroblasts (MEFs) and wild type MEFs were prepared from day 13.5 embryos and maintained in DMEM supplemented with 10% fetal calf serum. MEFs at passage 4 were used in this experiment. Lipofectamine Plus™ reagent (Boehringer Mannheim) was used to transfect both 293 and NIH-3T3 cells according to directions from the manufacturer. […] TNF-α stimulation of cells was done using recombinant TNF-α (200 U/ml) for 12 hours. […] CAT assays were performed essentially as described in Leung, K. & Nabel, G. J. Nature 333, 776-778 (1988). To analyze the κB-reporter activity in MEFs, cells were transfected with the reporter (2×kB-Luc) and PRL-TK vector (Promega) using FuGENE6 transfection reagent (Roche). Luciferase activity was analyzed by Dual-Luciferase Reporter Assay System (Promega).
To map the domains responsible for inhibition of HIV transcription, truncation and point mutations were made in PRMT2 (FIG. 1D) and co-transfected with an NF-κB reporter in 293T cells. PRMT2-A represents an alternatively spliced form of PRMT2 found in the expressed sequence tag (EST) database. This isoform contains the first 218 amino acids of PRMT2 and differs from full length PRMT2 by the absence of the less conserved COOH-terminal domain. PRMT2-N was generated by introducing a stop codon after amino acid 95 before the putative Ado-Met domain of PRMT2. To analyze the role of the Ado-Met domain further, another mutant, PRMT2-4A, was prepared in which 141ILDV144 (SEQ ID NO:5) in this region were altered to four consecutive alanines to compare the effects of point mutations in this highly conserved region.
The mechanism and site of action of PRMT2 in the NF-κB signaling pathway was further defined by co-transfection of PRMT2 and its mutants with different regulators in this pathway with an NF-κB reporter in 293T cells (FIG. 2D).

[1] = tested on: HIV-1, HIV-2, HTLV-1, or HTLV-2 reporter plasmids; assay: CAT reporter assay with viral reporter plasmids in 293 cells; assay type: cell-based, human
Protocol: Cell culture, transfection, and reporter gene assays. The E1A-transformed, human kidney cell line, 293, and NIH-3T3 cells were maintained in Dulbecco's Modified Eagle Medium (DMEM) supplemented with 10% fetal calf serum and penicillin-streptomycin at 37° C. in 5% carbon dioxide in tissue culture grade Petri dishes. PRMT-2−/− mouse embryo fibroblasts (MEFs) and wild type MEFs were prepared from day 13.5 embryos and maintained in DMEM supplemented with 10% fetal calf serum. MEFs at passage 4 were used in this experiment. Lipofectamine Plus™ reagent (Boehringer Mannheim) was used to transfect both 293 and NIH-3T3 cells according to directions from the manufacturer. […] TNF-α stimulation of cells was done using recombinant TNF-α (200 U/ml) for 12 hours. Transfected cells were harvested at 36 hours, and CAT activity was assayed on 10 to 100 μg of protein from whole cell extracts. CAT assays were performed essentially as described in Leung, K. & Nabel, G. J. Nature 333, 776-778 (1988). To analyze the κB-reporter activity in MEFs, cells were transfected with the reporter (2×kB-Luc) and PRL-TK vector (Promega) using FuGENE6 transfection reagent (Roche). Luciferase activity was analyzed by Dual-Luciferase Reporter Assay System (Promega). […]

STAT3 = STAT3 arginine methylation in transfected HEK293 cells; assay type: cell-based; conditions: 24 hr after transfection, α-metR immunoblot
Protocol: Vascular smooth muscle cells (VSMC) were prepared from the thoracic aorta of 12-week-old-male wild-type and PRMT-2^−/− mice by the explant method. Mouse embryo fibroblasts (MEFs) were prepared from 13.5-day wild-type and PRMT-2^−/− embryos. VSMCs and MEFs were cultured in Dulbecco's modified Eagle's medium (DMEM) containing 10% fetal calf serum (FCS) at 37° C. in a humidified atmosphere of 95% air-5% CO2. The integrity of PRMT-2 expression in the established VSMCs and MEFs lines was confirmed by Western and immunofluorescence analysis (data not shown). Quiescent VSMC (3-5th passages) that had been serum-starved for 48 hr were used in the following experiments. HEK293 cells were also grown in DMEM plus 10% FCS and were transiently transfected with FuGENE6 transfection reagent (Roche Applied Science, Indianapolis, Ind.) according to the manufacture's protocol. For each transfection, 2 μg of expression construct for mouse PRMT-2 and 8 μg for mouse STAT3 were used. After 24-48 hr of transfection, cells were used for the following experiments.
Immunoprecipitation of STAT3 was performed as follows. […]

| Molecule | NF-κB DNA binding in nuclear extracts of transfected cells (p50/p65 complex) | association with endogenous IκB-α (IκB-α) | NF-κB activity (NF-κB) | IKK2- and p65-induced NF-κB activity (NF-κB) | expression from HIV-2 or HTLV reporter plasmids [1] | HIV-1 CAT expression ([1]; HIV-1 reporter plasmid) | Stat3 methylation (STAT3) |
| --- | --- | --- | --- | --- | --- | --- | --- |
| B1 | did not affect NF-κB DNA binding | did not associate | did not | unable to block this effect | – | – | – |
| B2 | – | interacted | inhibited NF-κB activity | inhibited both IKK2- and p65-induced NF-κB activity | No significant reduction | substantially inhibited | – |
| B3 | – | – | – | – | – | – | failed to evoke STAT3 methylation |
